# Data taken from paper PMC7080818.
# Columns and labels:
# [1] = target: 3xFLAG-KSHV-ORF64, N-terminal catalytic domain of the KSHV large tegument protein (Kaposi Sarcoma herpesvirus (KSHV)) (UniProt Q2HR64)
# [2] = target: 3xFLAG-HCMV-UL48, N-terminal catalytic domain of the HCMV large tegument protein (human cytomegalovirus (HCMV)) (UniProt P16785)
# [3] = target: 3xFLAG-BPLF1 (amino acid residues 1-235), N-terminal catalytic domain of the EBV large tegument protein (Epstein-Barr virus (EBV)) (UniProt P03186)
# UniProt P03186, sequence (P03186 1-235): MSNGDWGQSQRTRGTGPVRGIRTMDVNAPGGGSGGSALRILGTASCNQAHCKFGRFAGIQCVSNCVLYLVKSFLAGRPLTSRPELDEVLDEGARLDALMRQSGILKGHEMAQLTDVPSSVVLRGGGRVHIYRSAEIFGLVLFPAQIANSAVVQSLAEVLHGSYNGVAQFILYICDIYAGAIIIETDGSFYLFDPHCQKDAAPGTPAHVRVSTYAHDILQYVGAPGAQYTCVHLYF
# UniProt P16785, sequence (P16785 1-300): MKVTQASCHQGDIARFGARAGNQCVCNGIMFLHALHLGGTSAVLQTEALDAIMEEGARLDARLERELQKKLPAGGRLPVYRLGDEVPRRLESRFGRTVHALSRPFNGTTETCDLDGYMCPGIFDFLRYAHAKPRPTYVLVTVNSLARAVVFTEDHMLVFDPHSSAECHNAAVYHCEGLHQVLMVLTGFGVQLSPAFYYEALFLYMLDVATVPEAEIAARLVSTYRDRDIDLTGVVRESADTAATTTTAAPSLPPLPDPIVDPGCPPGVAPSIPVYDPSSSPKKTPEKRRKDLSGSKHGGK
# UniProt Q2HR64, sequence (Q2HR64 1-300): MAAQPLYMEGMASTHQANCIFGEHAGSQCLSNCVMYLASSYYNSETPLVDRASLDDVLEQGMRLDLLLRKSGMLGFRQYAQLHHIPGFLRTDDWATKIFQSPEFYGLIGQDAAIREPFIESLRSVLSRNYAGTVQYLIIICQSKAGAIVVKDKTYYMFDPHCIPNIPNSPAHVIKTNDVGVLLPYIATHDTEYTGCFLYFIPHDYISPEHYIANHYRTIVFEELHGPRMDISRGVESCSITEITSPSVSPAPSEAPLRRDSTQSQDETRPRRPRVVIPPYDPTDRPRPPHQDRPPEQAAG
substance,measurement,setting,value
"14-3-3 molecular scaffold (endogenous, detected with a pan 14-3-3 antibody) (from UniProt P63104 1-245) (natural protein)","mono-ubiquitination of co-transfected HA-TRIM25 (western blot, densitometry), percent mono-ubiquitinated TRIM25",[1],> 70%
same,"mono-ubiquitination of co-transfected HA-TRIM25 (western blot, densitometry), percent mono-ubiquitinated TRIM25",[2],> 70%
same,inhibition of IRF3 nuclear translocation in RIG-I-2CARD positive HeLa cells,[3],> 50%
